The data set in a line: yeast display, Sf9 membrane polyspecificity reagent, FACS + sequencing; frameworks hold sequencing errors. In short, it runs like this: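 Polyreactivity labels are assigned by the sorting gate from which each nanobody was recovered. The gates were low and high (top ~1%), set on anti-HA fluorescence for expression and streptavidin fluorescence for reagent binding. Before sorting, galactose-induced (36–48 hours) yeast display cells were stained for 1 hour at 4 °C with 10% biotinylated, detergent-solubilized Sf9 membrane reagent.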
Regarding “QVQLVESGGGLVQAGGSLRLSCAASGRTFSYNAMGWYRQAPGKERELVAGISSRGGSTYYADSVKGRFTISRDNAKNTVYLQMNSLKPEDTAVYYCNALGRGKDSYSGVDYWGQGTQVTVSS”, the “polyreactivity (PSR sort gate)” value is “high polyreactivity”.
To “QVQLVESGGGLVQAGGSLRLSCAASGRTFSYNTMGCYRQAPGKERELVARITWGGGSTNYADSVKGRFTISRDNAKNTVYLQMNSLKPEDTAVYYCAREYSSVYWVRHLFYYWGQGTQVTVSS” belongs “low polyreactivity”; to “QVQLVESGGGLVQAGGSLRLSCAASGRTFSYNTMGWYRQAPGKVSELVAAISTGVSTYYADSVKGRFTISRDNAKNTVYLQMNSLKPEDTEVYYCARGGRPRWYPPHNYWGQGTQLTVSS”, “low polyreactivity”.
In the case of “QVQLVESGGGLVQAGGSLRLSCAASGRTFSYYAMGCYRQAPGKERELVAAISQRGGSTYYADSVKGRFTISRDNAKNTVYLQMNSLKPEDTAVYYCAVLVSRYRYRVLDDYWGQGTQVTVSS”, the “polyreactivity (PSR sort gate)” value is listed as “high polyreactivity”.
Take “QVQLVESGGGLVQAGGSLRLSCAASGRTFSYYAMGWYRQAPGKERELVAAISSGGSTNYADSVKGRFTISRDNAKNTVYLQMNSLKPEDTAVYYCATSSIWGSGRVRWVTYYYWGQGTQVTVSS”: the “polyreactivity (PSR sort gate)” value is on record as “low polyreactivity”.
To “QVQLVESGGGLVQAGGSLRLSCAASGRTFSYYAMGWYRQAPGKERELVAGISWRGTSTYADSVKGRFTISRDNAKNTVYLQMNSLKPEDTAVYYWNAEVTGHYSYHKFDYWGQGTQVTVSS” belongs “low polyreactivity”; to “QVQLVESGGGLVQAGGSLRLSCAASGRTFSYYAMGWYRQAPGKERELVAVITSSGGSTSYADSVKGRFTISRDNAKNTVYLQMNSLKPEDTAVYYCAADPLAVSWAYYLFGVDYWGQGTQVTVSS”, “high polyreactivity”.
To “QVQLVESGGGLVQAGGSLRLSCAASGRTFSYYGMGWYRQAPGKERELVAAITNSVGRTYYADSVKGRFTISRDNEKNTVYLHMNSLKPEDTAVYYCKKYGRYYYWGQGTQVTVSS” belongs “low polyreactivity”; to “QVQLVESGGGLVQAGGSLRLSCAASGRTFTAYAMGWYRQAPGKERELVAAISVGGGSTYYADSVKGRFTISRDNAKNTVYLQMNSLKPEDTAVYYCAADRSYYLDGYDYWGQGTQVTVSS”, “low polyreactivity”.
To “QVQLVESGGGLVQAGGSLRLSCAASGRTFTFYTMGWYRQAPGKERELVAAITRSGGGTYYADSVKGRFTISRDNAKNTVYLQMNSLKPEDTAVYYCAAYNRNAFHWGQGTQVTVSS” belongs “high polyreactivity”; to “QVQLVESGGGLVQAGGSLRLSCAASGRTFTGNALGWYRQAPGKERELVAAISQRGGRTNYADSVKGRFTISRDNAKNTVYLQMNSLKPEDTAVYYCAADLGYYYFFGSNYAYDYWGQGTQVNVSS”, “low polyreactivity”.
For “QVQLVESGGGLVQAGGSLRLSCAASGRTFTGYAMGWYRQAPGKEREFVAAITQRGGSTYYADSVKGRFTISRDTAKNTVYLQMNSLKPEDTAVYYCAARRRYKMDYWGQGTQVTVSS”, the “polyreactivity (PSR sort gate)” value is on record as “high polyreactivity”.
Next, “QVQLVESGGGLVQAGGSLRLSCAASGRTFTHYDMGWYRQAPGKERELVAAISSGCGTYYADSVKGRFTISRDNAKNTVYLQMNSLKPEDTAVYYCNADYTNYHDPFRTYGYWGQGTQVTVSS”: “low polyreactivity”; “QVQLVESGGGLVQAGGSLRLSCAASGRTFTINGMGWYRQAPGKERELVAGINWRDGRTYYADSVKGRFTISRDNAKNTVYLQMNSLKPEDTAVYYCNVEVAESFDYWVQGTQVTVSS”: “low polyreactivity”.
As for “QVQLVESGGGLVQAGGSLRLSCAASGRTFTIYAMGWYRQAPGKEREFVASITGSDGSTYYADSVKGRFTISRDNAKNTVYLQMNSLKPEDTAVYYCAAKRYVYPSYRFDYWGQGTQVTVSS”, the “polyreactivity (PSR sort gate)” value is “low polyreactivity”.
Regarding “QVQLVESGGGLVQAGGSLRLSCAASGRTFTIYTMGWYRQAPGKERELVAAISRGGRTNYADSVKGRFTISRDNAKNTVYLQMNSLKPEDTAVYYCNADGSRYYTAYRLRLPYDYWGQGTQVTVSS”, the “polyreactivity (PSR sort gate)” value was “high polyreactivity”.
Next, “QVQLVESGGGLVQAGGSLRLSCAASGRTFTLYAMGWYRQAPGKERELVASITTGGRTYYADSVKGRFTISRDNAKNTVYLKMNSLKPEDTAVYYCNADRVYAWYRTYEYWGQGTEVTVSS”: “high polyreactivity”.
For “QVQLVESGGGLVQAGGSLRLSCAASGRTFTPYAMGWYRQAPGKERELVAAINSDGSTNYADSVKGRFTISRDNAKNTVYLQMNSLKPEDTAVYYCAAGYSLEGDYWGQGTQVTVSS”, the “polyreactivity (PSR sort gate)” value was “low polyreactivity”.
To “QVQLVESGGGLVQAGGSLRLSCAASGRTFTQYAMGWYRQAPGKERELVARISYSGGTTYYADSVKGRFTISRDNAKNTVYLQMNSLKPEDTAVYYCARDYYGSVRFDHWGQGTQVTVSS” belongs “high polyreactivity”; to “QVQLVESGGGLVQAGGSLRLSCAASGRTFTQYAMGWYRQAPGKEREMVAAISWRGGSTYYADSVKGRFTISRDNAKNTVYVQMNSLKPEDTAVSYCAKRYFRGYPLYDYWGQGTQVTVSS”, “high polyreactivity”.
Next, “QVQLVESGGGLVQAGGSLRLSCAASGRTFTQYAMRWYRQAPGKERELVAAISWRGGSTYYADSVKGRFTISRDNAKNTVYLQMNSLKPEDTAVYYCAKRYFRGYPLYDYWGQGTQVTVSS”: “high polyreactivity”.
Next, “QVQLVESGGGLVQAGGSLRLSCAASGRTFTRYAMGRYRQAPGKERELVASISGSGGRTNYADSVKGRFTISRDNAKNTVYLQMNSLKPEDTAVYYCAARYRTWFGYWGQGTQVTVSS”: “high polyreactivity”.
Take “QVQLVESGGGLVQAGGSLRLSCAASGRTFTRYAMGWYRQAPGKERELVAAISWSGGSTYYADSVKGRFTISRDNAKNTVYLQMNSLKPEDTAVYYCNAYYYYPEFNYWGQGTQVTVSS”: the “polyreactivity (PSR sort gate)” value is listed as “high polyreactivity”.
To “QVQLVESGGGLVQAGGSLRLSCAASGRTFTSYAMGWYRQAPGKERELVAAITRGGRTNYADSVKGRFTISRDNAQNTVYLQMNSLKPEDTAVYYCNADGPGYAAKYYWKYDYWGQVTQVTVSS” belongs “low polyreactivity”; to “QVQLVESGGGLVQAGGSLRLSCAASGRTFTSYPMGWYRQAPGKERELVAVITRRGGSTSYADSVKGRFTISRDNAKHTVYLQMNSLKPEDTAVYYCAAKRTWPDVKYIRYGYWGQGTQVTVSS”, “high polyreactivity”; to “QVQLVESGGGLVQAGGSLRLSCAASGRTFTTNAMGWYSQARGKERELVAAINSGGSTNYADSVKGRFTISRDNAKNTVYLQMNRLKPEDTAVYYCAKRQRDYSSVFEVDYWGQGTQVTVSS”, “low polyreactivity”.
With “QVQLVESGGGLVQAGGSLRLSCAASGRTFTTYAMGWYRQAPGKERELVAAISGSGGSTYYADSVKGRFTISRDNAKNTVYLQMNSLKPEDTAVYYCATAYYYHGGYYYPYDDYWGQGTQVTVSS”, the “polyreactivity (PSR sort gate)” value is on record as “low polyreactivity”.
“QVQLVESGGGLVQAGGSLRLSCAASGRTFTTYAMGWYRQAPGKERELVAAITSGGSTNYADSVKGRFTISRDNAKNTVYLQMNSLKPEDTAVYYCAARFRVYTYSQRHWREFGYWGQGTQVTVSS”: the “polyreactivity (PSR sort gate)” value is given as “high polyreactivity”.
For “QVQLVESGGGLVQAGGSLRLSCAASGRTFTTYTMGWYRQAPGKERELVAAISWGGTSTYYADSVKGRFTISRDNAKNTVYLQMNSLKPDDTAVYYCNVLERGPGGPDDSWGQGTQVTVSS”, the “polyreactivity (PSR sort gate)” value is “low polyreactivity”.
On to “QVQLVESGGGLVQAGGSLRLSCAASGRTFTVNAMGWYRQAPGKEREFVATISYRGGSTYADSVKGRFTISRDNAKNNVYLQMNSLKPEDTAVYYCAARSFWPYYGGDYDYWGQGNQVTVSS”, for which the “polyreactivity (PSR sort gate)” value is listed as “high polyreactivity”.
With “QVQLVESGGGLVQAGGSLRLSCAASGRTFTVYAMGGSRQAPGKERELVAGIRRGDSTYYADSVKGRFTISRDNAKNSVDFQMNSLKPEDTAVYYCNARSSGRSYYYWGQGTQVTVSS”, the “polyreactivity (PSR sort gate)” value is listed as “high polyreactivity”.
In the case of “QVQLVESGGGLVQAGGSLRLSCAASGRTFTVYAMGWYRQAPGKEREFVATISWSGGRTYYADSVKGRFTISRDNAKNTVYLQMNSLKPEDTAVYYCSAQEYTTRFYFNRDYWGQGTQVTVSS”, the “polyreactivity (PSR sort gate)” value is listed as “low polyreactivity”.
To “QVQLVESGGGLVQAGGSLRLSCAASGRTFTVYTMGWYRQAPGKERELVAVISTGGRTYYADSVKGRFTISRDNAMNTVYLQMNSLKPEDTAVYYCAAKFTREYYWGQGTQVTVSS” belongs “high polyreactivity”; to “QVQLVESGGGLVQAGGSLRLSCAASGRTFTWNAMGWYRQAPGKERELVADITNNGGSTYYADSVKGRFTISRDNAKNTVYLQMNSLKPEDTAVYYCAKRRNYWFSFDYWGQGTQVTVSS”, “low polyreactivity”.
Next, “QVQLVESGGGLVQAGGSLRLSCAASGRTFTYNAMGWYRQAPGKERELVAAITYRGGSTYYADSVKGRFTISRDNSNNTVYLQMNSLKPEDTAVYYCAASVSYYRYNTPHYYYWGQGTQVTVSS”: “high polyreactivity”; “QVQLVESGGGLVQAGGSLRLSCAASGRTFTYNAMGWYRQAPGKERELVASIRRSGTITYYADSVKGRFTISRDNAKNTVYLQMNSLKPEDTAVYYCAARYPWYRYYSWGQGTQVTVSS”: “high polyreactivity”; “QVQLVESGGGLVQAGGSLRLSCAASGRTFTYNTMGWYRQAPGKERELVAAISSRGGRTYYADSVKGRFTISRDNAKNTVYLQMNSLKPEDTAVYYCNADYRYPQYYHRTWIRYDYWGQGTQVTVSS”: “high polyreactivity”.
Regarding “QVQLVESGGGLVQAGGSLRLSCAASGRTFTYNTMGWYRQAPGKERELVAAISSSGGSTYYADSVKGRFTISRDNAKNTVYLQMNSLKPEDTAVYYCAKRYFSSSRYYYWGQGTQVTVSS”, the “polyreactivity (PSR sort gate)” value is on record as “high polyreactivity”.
To “QVQLVESGGGLVQAGGSLRLSCAASGRTFTYYAMGWYRQAPGKERELVAAITSGGRTYYADSVKGRFTISRDNAKNTVYLQMNSLKPEDTAVYYCAARRIRDYYRSYDYWGQGTQVTVSS” belongs “high polyreactivity”; to “QVQLVESGGGLVQAGGSLRLSCAASGRTFTYYAMGWYRQAPGKERELVAAITWSGGSTYYADSVKGRFTISRDNAKNTVYLQMNSLKPEDTAVYYCAAVDADYYYWGQGTQVTVSS”, “high polyreactivity”; to “QVQLVESGGGLVQAGGSLRLSCAASGRTFTYYAMGWYRQAPGKERELVATIRSGGTTNYADSVKGRFTISRDNAKNTVYLQMNSLKPEDTAVYYCARVLSYVWYYRDPYQYPDYDYWGQGTQVTVSS”, “low polyreactivity”.

(Values after the nanobody polyreactivity screen of Harvey et al. (2022).)
